Literature values as cited in paper PMC4520744.

Target: HBV capsid protein (Hepatitis B virus) (UniProt P03149)

For “HBV capsid protein (from UniProt P03149)”, the Kd is given as 3000 µM.
